From patent US5955575A, “Antagonists of G-protein-coupled receptor” (Hopital Sainte-Justine, priority 1997, dated 1999)
No end group written: not given here.

What was measured:
Type in all cases: cell-based
[1] = target: T1, FP receptor (Homo sapiens, UniProt P43088); assay: Phosphoinositide hydrolysis in permeabilized A549 cells loaded with synthetic peptides, stimulated with PGF2α; conditions: dose-response in permeabilized A549 cells stimulated with PGF2α; FIG. 2B; read-out: half maximal inhibitory concentration
T1 construct: endogenous in cells; host or cells: A549 lung carcinoma cells (ATCC CCL185)

[2] = target: T1, FP receptor; assay: Phosphoinositide hydrolysis in A549 cells stably expressing the peptides, stimulated with PGF2α; conditions: peptide stably expressed intracellularly in A549 cells; 1 μM PGF2α for 30 min; n=3; FIG. 1A
Method: (§1) A549 lung carcinoma cells (ATCC Accession No.: CCL185, American Type Culture Collection, Rockville, Md. 20852) were cultured in Dulbecco's modified Eagles medium (DMEM) with 10% fetal bovine serum (FBS) and antibiotics, penicillin (10 U/ml) and streptomycin (10 μg/ml) in a humidified atmosphere containing 5% CO2 at 37° C. The cells were trypsinized and plated in 6-well tissue culture dishes at 2×10^5 cells/well, a day before commencing the experiments.
(§2) The expression plasmids carrying the third (PCP-1) and the fourth (PCP-2) intracellular domains were introduced into A549 cells using Transfectamine lipid (GIBCO Life Technologies, Burlington, ON). Three (3) micrograms of DNA and 16 μg of lipid were mixed in 200 μl of water and incubated at room temperature for 45 min. Then, the lipid-DNA complexes were diluted with 0.8 ml of Opti-MEM™ (GIBCO Life Technologies, Burlington, ON). The cells were washed twice with Hank's Balanced Salt Solution and incubated with lipid-DNA complexes for 6 hours. An equal volume of DMEM with 20% FBS was added and the cells were kept in the incubator overnight. On the next day, the medium was replaced with DMEM containing 10% FBS and antibiotics and incubated for another 24 hours. […]

[3] = target: T2, EP1 (Homo sapiens, UniProt P34995); assay: Phosphoinositide hydrolysis in A549 cells stably expressing the peptides, stimulated with PGE2 (specificity); conditions: peptide stably expressed intracellularly in A549 cells; 1 μM PGE2 for 30 min; FIG. 1B
T2 construct: a related prostaglandin receptor expressed in these cells; endogenous in cells; host or cells: A549 lung carcinoma cells (ATCC CCL185)
T2 sequence (P34995 1-402): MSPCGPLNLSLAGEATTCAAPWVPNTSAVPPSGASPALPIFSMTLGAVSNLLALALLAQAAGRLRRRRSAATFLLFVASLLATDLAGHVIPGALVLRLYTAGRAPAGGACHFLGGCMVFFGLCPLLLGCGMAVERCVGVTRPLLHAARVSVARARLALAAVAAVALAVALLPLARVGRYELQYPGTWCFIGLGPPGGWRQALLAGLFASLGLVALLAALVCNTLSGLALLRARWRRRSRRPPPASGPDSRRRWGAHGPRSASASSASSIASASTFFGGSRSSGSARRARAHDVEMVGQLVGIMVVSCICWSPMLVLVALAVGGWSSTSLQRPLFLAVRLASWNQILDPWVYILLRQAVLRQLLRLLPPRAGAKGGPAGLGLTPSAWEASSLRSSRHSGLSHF
Method: as §1, §2

T1 sequence (P43088 whole entry): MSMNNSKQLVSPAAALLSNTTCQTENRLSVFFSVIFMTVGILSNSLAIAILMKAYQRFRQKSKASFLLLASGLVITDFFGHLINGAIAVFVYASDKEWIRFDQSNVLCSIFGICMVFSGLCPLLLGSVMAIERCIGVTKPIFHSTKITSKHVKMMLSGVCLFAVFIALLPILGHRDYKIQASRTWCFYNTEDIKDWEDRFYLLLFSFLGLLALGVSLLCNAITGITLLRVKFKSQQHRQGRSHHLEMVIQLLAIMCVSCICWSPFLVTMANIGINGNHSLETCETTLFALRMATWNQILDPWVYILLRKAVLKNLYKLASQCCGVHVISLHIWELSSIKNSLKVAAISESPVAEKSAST

IC50 [1] [µM]	ligand-stimulated phosphoinositide hydrolysis (fold stimulation over unstimulated controls) [2]	inositol phosphate generation by EP1 receptor [3]	Substance
50			KDTILQLNLKEYNLV-NH2 [PCP-4, KDTILQLNLK EYNLV-NH2]
	inhibited	did not affect	RKAVLKNLYKLASQCCGVHVISLHIWELSSIKNSLKVAAISESPVAEKSAST (RKAVLKNLYKLASQCCGVHVISLHIWELSSIKNSLKVAAISESPVAEKSAST) [PCP-2]
	inhibited	did not affect	RVKFKSQQHR QGRSHHLEM (RVKFKSQQHRQGRSHHLEM) [PCP-1]
